Data from patent publication US20230416798A1 (MBRACE THERAPEUTICS, published 2023).

How the values were obtained:
Assay in all cases: alanine scan, high-throughput flow cytometry; criterion for major residues
[1] = target: T1, GRP78 alanine scan variant at H265 (human, UniProt P11021 19-654)
T1 construct: Member of the alanine scan library of GRP78
Protocol: (§1) To characterize the binding properties of the antibodies described in Example 1 for GRP78, epitope mapping analysis was carried out by alanine scan mutagenesis. An alanine scan library of GRP78 was constructed. Each anti-GRP78 antibody was then screened for binding to each individual GRP78 variant, allowing identification of the target protein residues involved in antibody binding.
(§2) Binding of each test antibody to each GRP78 variant in the alanine scanning library was determined by high-throughput flow cytometry under high stringency conditions (e.g., increased pH, increased salinity, increased temperature and/or increased wash time). Also included in the experiment was a commercially-available monoclonal antibody, 1H11-1H7, which was verified to bind to WT GFR78 on cells and thus determined to be a suitable positive control under these conditions (Thermo Fisher Scientific, Waltham, MA). Antibody binding to each of the GRP78 variant as measured by the fluorescence signal (raw fluorescence data minus the background), was normalized to its binding to the wildtype (WT) GRP78. For each GRP78 variant, such normalized binding to the test antibodies was plotted relative to that to the control antibody.

[2] = target: T2, GRP78 alanine scan variant at R261 (human, UniProt P11021 19-654)
T2 construct: Member of the alanine scan library of GRP78
Protocol: as §1, §2

[3] = target: T3, GRP78 alanine scan variant at E329 (human, UniProt P11021 19-654)
T3 construct: Member of the alanine scan library of GRP78
Protocol: as §1, §2

[4] = target: T4, GRP78 alanine scan variant at R279 (human, UniProt P11021 19-654)
T4 construct: Member of the alanine scan library of GRP78
Protocol: as §1, §2

T2 sequence (P11021 other isoform, or with tags, fused parts or gaps mutant limits assumed): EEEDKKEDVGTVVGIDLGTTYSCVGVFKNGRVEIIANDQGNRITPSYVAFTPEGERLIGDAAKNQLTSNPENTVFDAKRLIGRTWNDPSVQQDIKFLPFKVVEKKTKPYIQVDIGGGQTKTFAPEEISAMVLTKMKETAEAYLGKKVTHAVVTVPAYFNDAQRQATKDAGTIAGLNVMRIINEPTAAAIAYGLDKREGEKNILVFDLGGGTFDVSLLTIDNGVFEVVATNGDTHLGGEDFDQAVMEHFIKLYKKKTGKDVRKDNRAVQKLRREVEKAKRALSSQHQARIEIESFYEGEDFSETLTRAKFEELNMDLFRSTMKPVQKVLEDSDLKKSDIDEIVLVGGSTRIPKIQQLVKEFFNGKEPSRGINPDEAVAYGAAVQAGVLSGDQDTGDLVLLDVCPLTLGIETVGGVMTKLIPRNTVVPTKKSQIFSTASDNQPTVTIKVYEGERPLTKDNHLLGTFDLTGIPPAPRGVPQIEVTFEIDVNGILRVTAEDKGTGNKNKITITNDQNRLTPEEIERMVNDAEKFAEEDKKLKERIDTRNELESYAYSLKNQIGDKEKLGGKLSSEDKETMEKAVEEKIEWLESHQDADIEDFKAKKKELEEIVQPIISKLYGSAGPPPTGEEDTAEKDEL
T3 sequence (P11021 other isoform, or with tags, fused parts or gaps mutant limits assumed): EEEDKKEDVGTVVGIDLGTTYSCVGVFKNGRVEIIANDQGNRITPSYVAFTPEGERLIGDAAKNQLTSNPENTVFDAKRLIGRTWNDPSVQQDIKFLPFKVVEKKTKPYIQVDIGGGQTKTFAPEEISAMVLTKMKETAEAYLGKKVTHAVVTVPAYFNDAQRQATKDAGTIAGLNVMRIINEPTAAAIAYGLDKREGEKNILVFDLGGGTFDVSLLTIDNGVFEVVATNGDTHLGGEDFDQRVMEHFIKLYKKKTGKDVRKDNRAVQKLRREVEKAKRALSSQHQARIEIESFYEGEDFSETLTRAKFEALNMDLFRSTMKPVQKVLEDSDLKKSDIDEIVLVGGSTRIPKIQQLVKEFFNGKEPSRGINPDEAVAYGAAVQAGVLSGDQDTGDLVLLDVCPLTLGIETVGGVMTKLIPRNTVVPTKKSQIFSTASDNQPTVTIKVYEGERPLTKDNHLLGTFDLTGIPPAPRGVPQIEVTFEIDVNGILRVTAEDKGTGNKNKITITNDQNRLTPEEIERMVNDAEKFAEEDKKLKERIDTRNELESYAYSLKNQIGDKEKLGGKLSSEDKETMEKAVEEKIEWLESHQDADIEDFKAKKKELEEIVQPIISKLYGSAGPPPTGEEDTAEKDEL
T1 sequence (P11021 other isoform, or with tags, fused parts or gaps mutant limits assumed): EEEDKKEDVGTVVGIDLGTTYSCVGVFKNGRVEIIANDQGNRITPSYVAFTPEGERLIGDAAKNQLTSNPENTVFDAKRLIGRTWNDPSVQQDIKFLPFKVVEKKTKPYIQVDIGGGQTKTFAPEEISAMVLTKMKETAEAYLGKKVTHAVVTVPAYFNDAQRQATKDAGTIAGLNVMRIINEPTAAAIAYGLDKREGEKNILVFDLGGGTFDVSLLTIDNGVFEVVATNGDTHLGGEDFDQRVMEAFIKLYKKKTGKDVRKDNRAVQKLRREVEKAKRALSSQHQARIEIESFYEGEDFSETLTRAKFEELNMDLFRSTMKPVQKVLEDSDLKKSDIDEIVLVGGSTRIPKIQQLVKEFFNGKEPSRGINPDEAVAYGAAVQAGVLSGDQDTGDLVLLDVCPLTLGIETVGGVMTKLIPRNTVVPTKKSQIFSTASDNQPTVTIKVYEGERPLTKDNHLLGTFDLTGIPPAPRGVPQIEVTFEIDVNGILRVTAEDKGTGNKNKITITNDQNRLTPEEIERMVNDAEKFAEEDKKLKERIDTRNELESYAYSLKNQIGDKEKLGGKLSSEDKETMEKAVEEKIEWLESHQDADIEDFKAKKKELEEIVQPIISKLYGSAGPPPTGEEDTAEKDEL
T4 sequence (P11021 other isoform, or with tags, fused parts or gaps mutant limits assumed): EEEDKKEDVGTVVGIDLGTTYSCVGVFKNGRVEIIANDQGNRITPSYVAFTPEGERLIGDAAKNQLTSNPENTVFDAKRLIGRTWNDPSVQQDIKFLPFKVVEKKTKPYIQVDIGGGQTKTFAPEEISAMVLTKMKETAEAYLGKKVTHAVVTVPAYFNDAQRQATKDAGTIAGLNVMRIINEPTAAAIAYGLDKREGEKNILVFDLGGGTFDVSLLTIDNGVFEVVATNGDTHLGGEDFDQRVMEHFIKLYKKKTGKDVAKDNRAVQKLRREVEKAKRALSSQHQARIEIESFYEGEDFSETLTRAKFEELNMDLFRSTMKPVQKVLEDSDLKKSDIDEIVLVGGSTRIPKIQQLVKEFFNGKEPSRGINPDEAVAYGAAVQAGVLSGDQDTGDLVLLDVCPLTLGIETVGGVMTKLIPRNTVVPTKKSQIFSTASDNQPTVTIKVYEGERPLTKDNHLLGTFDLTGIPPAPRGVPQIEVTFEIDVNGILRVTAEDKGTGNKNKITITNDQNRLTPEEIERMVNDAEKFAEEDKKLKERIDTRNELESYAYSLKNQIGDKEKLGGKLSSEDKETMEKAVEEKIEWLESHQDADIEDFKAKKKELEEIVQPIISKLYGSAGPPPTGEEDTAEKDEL

Binder | binding normalized to wildtype (WT) GRP78 [1] [%] | binding normalized to wildtype (WT) GRP78 [2] [%] | binding normalized to wildtype (WT) GRP78 [3] [%] | binding normalized to wildtype (WT) GRP78 [4] [%]
anti-GRP78 antibody clone B4 (antibody, IgG1, V domains shown, Fully human mAb formatted as full-length IgG1; also called B4 mAb) VH: QVRLQESGPGLVKPSQTLSLTCTVSGGSISSGGYYWSWIRQHPGKGLEWIGYIYYSGSTYYNPSLESRVTISVDTSKNQFSLKLSSVTAADTAVYYCARYSSIDAFEIWGQGTMVTVSS VL: SYVLTQPPSVSVAPGKTATITCGGDDIGSKSVHWYQQKPGQAPVLVVYDDGDRPSGIPERFSGSNSGNTATLAISRVEAGDEADYYCQVWDSSSDQYVFGSGTKLTVL | < 20 | < 20 | < 20 | –
anti-GRP78 antibody clone F6 (antibody, IgG1, V domains shown, Fully human mAb formatted as full-length IgG1; also called F6 mAb; Anti-GRP78 (F6)) VH: QVQLQQSGPGLVKPPQTLSLTCAISGDSVSSNSAAWNWIRQSPSRGLEWLGRTYYRSKWYNDYAVSVKSRITINPDTSKNQFSLQLNSVTPEDTAVYYCARDPYYYDSSGYYYFDAFDIWGQGTMVTVSS VL: SYELTQPHSVSVAPGQTARITCGGDNIGSKSVHWYQQRPGQAPVLVVYDDSDRPSGIPERFSGSNSENTATLTISGVEAGDEADYYCQVWDSTSHHVVFGGGTKLTVL | – | < 20 | – | < 20
